Data: the supplement of paper PMC9732359
± gives the uncertainty stated by the source.

Assay: protein stability index of a GFP-peptide fusion (yeast GPS) (PSI 1-4); higher = more stable; sorted into four equal gates, so the index is relative within each strain
Outline: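 Sequencing reads from sorted gates were used to score each peptide. The library consisted of tiled 17-residue yeast protein peptides fused downstream of GFP on a Cherry-expressing plasmid, pooled and carried in yeast. Mid-log cultures in leucine-free medium were split into four equal gates by GFP/Cherry ratio, and each gate's plasmids were PCR-amplified and Illumina-sequenced. The protein stability index adds up, over all gates, the read frequency multiplied by the gate number.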

Row | Sequence | protein stability index (doa10∆) | protein stability index (pdr5∆) | protein stability index (san1∆) | protein stability index (ubr1∆)
1 | TNLKNHPAYLFKGLETP [YLR018C/POM34] | 2.38 ± 0.055 | 2.51 ± 0.039 | 1.59 ± 0.061 | 2.36 ± 0.028
2 | VDSKTKEPVDDKDVKAK [FAS2] | 2.31 ± 0.24 |  | 2.28 ± 0.13 | 3.28 ± 0.16
3 | DVNEKIRFRIEREVFVD [RPC25] | 1.81 ± 0.074 | 1.29 ± 0.066 | 1.56 ± 0.13 | 1.2 ± 0.044
4 | ITKVPALEFLNTTLQDN [REC8] | 2.77 ± 0.08 | 2.7 ± 0.15 | 2.98 ± 0.12 | 2.71 ± 0.084
5 | DNNNTTNNDSNNKNNSI [MED2] | 2.83 ± 0.049 | 2.86 ± 0.045 | 2.96 ± 0.038 | 2.45 ± 0.034
6 | QDKMFVSNPIRKVFKPS [FAS1] | 3.01 ± 0.058 | 2.62 ± 0.054 | 2.03 ± 0.1 | 2.68 ± 0.06
7 | LDIINPGSVEEVDKSKL [YDL116W/NUP84] | 2.94 ± 0.1 | 3.44 ± 0.11 | 3.24 ± 0.13 | 3.53 ± 0.087
8 | RKIVFRCSECIKILGSE [RPN4] | 1.22 ± 0.14 | 1.88 ± 0.25 |  | 
9 | LQLELTIEDIAVAITRA [RPO31] | 1.92 ± 0.057 | 2.12 ± 0.044 | 1.97 ± 0.058 | 2.07 ± 0.041
10 | RLVIKEALVERRRAFKR [RPB4] | 3.13 ± 0.29 | 2.67 ± 0.14 | 2.8 ± 0.22 | 
11 | FTTNKSKDVSRLLSALG [SRP21] | 3.03 ± 0.2 | 2.41 ± 0.28 |  | 2.8 ± 0.081
12 | VSKPAFSFGAKANEKKE [YJL041W/NSP1] | 3.07 ± 0.15 | 2.78 ± 0.24 | 2.95 ± 0.11 | 2.94 ± 0.16
13 | RESTKALTRGEALLVVL [RPS12] |  | 3.49 ± 0.16 |  | 3.4 ± 0.045
14 | FCRDCNNMLYPREDKEN [RPB9] | 3.11 ± 0.083 | 3.11 ± 0.076 | 2.9 ± 0.064 | 3.08 ± 0.061
15 | TAAIDSVVSQIEKGSTF [FAS1] | 3.1 ± 0.097 | 2.95 ± 0.078 | 3.12 ± 0.072 | 2.93 ± 0.057
16 | QLPKQLWRNFCRKLSFS [ITC1] | 2.67 ± 0.059 | 2.66 ± 0.05 | 2.6 ± 0.039 | 2.66 ± 0.034
17 | DINTIKLQLSFVLQMVG [SRP72] | 1.26 ± 0.092 | 1.88 ± 0.066 | 1.32 ± 0.11 | 1.57 ± 0.062
18 | REFLKVDQEMLYEIILA [SKP1] | 2.81 ± 0.066 | 2.85 ± 0.065 | 2.86 ± 0.096 | 2.96 ± 0.051
19 | PIVLLNTLRKCYPQFAE [UBP6] | 1.25 ± 0.11 | 1.26 ± 0.073 | 1.14 ± 0.16 | 1.19 ± 0.12
20 | FLIHSGQPVNDFIDTAT [RPS3] | 2.71 ± 0.053 | 3 ± 0.056 | 3.09 ± 0.05 | 3.04 ± 0.073
21 | ESDAPPKSTAPIFSFGK [YOR098C/NUP1] | 2.72 ± 0.044 | 2.58 ± 0.044 | 2.71 ± 0.042 | 2.76 ± 0.038
22 | LIMALLQFRPAPMYILD [SMC2] | 2.47 ± 0.15 | 1.12 ± 0.059 | 1.32 ± 0.26 | 1.06 ± 0.046
23 | VEKVATAVLSTTARAKA [RPN2] | 3 ± 0.12 | 3.32 ± 0.086 | 2.93 ± 0.13 | 3.1 ± 0.081
24 | NIGQQQVKKPRKQRVKK [SWI1] | 3.47 ± 0.12 | 3.35 ± 0.13 | 3.42 ± 0.084 | 3.48 ± 0.11
25 | SGIVASPAVKKLLQLAG [RPS2] | 1.56 ± 0.12 | 1.66 ± 0.14 |  | 
26 | KIKLLTQATSEDGTSAS [RPC19] | 2.61 ± 0.065 | 2.85 ± 0.079 | 2.89 ± 0.062 | 3.11 ± 0.078

Row | Sequence | protein stability index (doa10∆) | protein stability index (pdr5∆) | protein stability index (san1∆) | protein stability index (ubr1∆)
27 | SASNTAKSTPNTNPSPL [GAL11] | 2.67 ± 0.044 | 2.87 ± 0.042 | 2.65 ± 0.038 | 2.9 ± 0.032
28 | TVISGDPNLELDQVGVP [RPO21] | 3.48 ± 0.23 | 3.2 ± 0.13 | 2.48 ± 0.23 | 3.04 ± 0.16
29 | SFVLNKNTIDFERFPSP [RPN4] | 2.4 ± 0.059 | 2.66 ± 0.058 | 2.84 ± 0.057 | 2.88 ± 0.052
30 | DINPPLVFILAVVGNNM [RRP42] | 1.84 ± 0.083 | 1.78 ± 0.058 | 1.96 ± 0.082 | 1.52 ± 0.046
31 | PNGSGKSNVIDSMLFVF [SMC4] | 2.87 ± 0.048 | 2.87 ± 0.051 | 2.68 ± 0.055 | 2.96 ± 0.037
32 | DDDIEKQEQEEKIKSKK [YCG1] | 3.08 ± 0.067 | 2.99 ± 0.056 | 3.01 ± 0.052 | 3.14 ± 0.049
33 | TMMANFEEWIKMATDNK [BRN1] | 3.19 ± 0.12 | 3.16 ± 0.11 | 3.08 ± 0.1 | 3.35 ± 0.1
34 | FVVGVDNVSSQQMHEVR [RPP0] | 2.1 ± 0.078 | 2.74 ± 0.1 | 3.07 ± 0.15 | 2.74 ± 0.08
35 | REHERVILKQILQILDQ [SWP82] | 2.83 ± 0.077 | 2.86 ± 0.066 | 2.84 ± 0.063 | 2.8 ± 0.046
36 | KYVLITGAGKGSIGAEV [FAS2] | 3.22 ± 0.24 | 3.27 ± 0.12 | 3.63 ± 0.099 | 3.05 ± 0.093
37 | LLSSESNIPTLIEKLQG [YDL116W/NUP84] | 2.42 ± 0.091 | 3.01 ± 0.11 | 2.6 ± 0.047 | 3.07 ± 0.072
38 | ELEHLTKKSKLESTKAE [DSN1] | 3.37 ± 0.1 | 3.08 ± 0.081 | 3.32 ± 0.095 | 3.13 ± 0.063
39 | SEIIDTNTSKQFQKARN [SRB8] | 2.71 ± 0.12 | 3.01 ± 0.063 | 3.16 ± 0.056 | 2.92 ± 0.095
40 | KRELKQLLEKAPIPIRE [BRR2] | 1.94 ± 0.05 | 2.22 ± 0.053 | 1.99 ± 0.13 | 1.91 ± 0.061
41 | RQCFREKANDIGFNKFR [RPS29A] | 3.32 ± 0.15 | 3.3 ± 0.13 | 3 ± 0.098 | 2.92 ± 0.098
42 | PGGASGLGVLTHRNKDG [FAS1] | 3.35 ± 0.067 | 2.74 ± 0.081 | 3.24 ± 0.076 | 3.44 ± 0.069
43 | MIDAVFEQDSHLRYQPD [SNF6] | 3.09 ± 0.076 | 3.19 ± 0.065 | 3.15 ± 0.041 | 3.19 ± 0.054
44 | PKEEEPILAPSVKDYRP [RPS3] | 2.8 ± 0.059 | 2.86 ± 0.079 | 3.04 ± 0.052 | 2.65 ± 0.054
45 | CDQTKSVPLMINAKNIA [RRP43] | 1.74 ± 0.061 | 2.21 ± 0.078 | 1.53 ± 0.11 | 1.61 ± 0.068
46 | DTSRPDLEWQELTSFSS [DSN1] | 3.18 ± 0.053 | 3.05 ± 0.053 | 3.08 ± 0.055 | 2.85 ± 0.042
47 | SKYFIIDSFFLYVLPSF [YMR129W/POM152] | 1.55 ± 0.045 | 1.65 ± 0.035 | 1.75 ± 0.06 | 1.23 ± 0.028
48 | LSRYVKWPEYVRLQRQK [RPL8B] |  | 2.71 ± 0.24 |  | 
49 | FQELDSKKQRNNGSKDH [RPN9] | 3.09 ± 0.17 | 2.64 ± 0.19 | 2.67 ± 0.15 | 2.37 ± 0.16
50 | HLSTYLKVYKVGDIVDI [RPL21A] | 1.22 ± 0.075 | 1.49 ± 0.061 | 1.24 ± 0.16 | 1.16 ± 0.065
51 | IKEELTKLIISGQLNFE [PCI8] | 3.29 ± 0.15 | 3.19 ± 0.15 | 2.54 ± 0.26 | 2.99 ± 0.088
